Assay results reported in US20230348569A1.
Where a chain is given by its changes, count along the chain named.

B1: mAb11006 (antibody, V domains shown)
VH: EVQLVESGGGLVQPGGSLRLSCAASGFIVSRNYMSWVRQAPGKGLEWVSVIYSGGSTFYADSVKGRFTISRHNSKNTLYLQMNSLKAEDTAVYYCARELRGYFDYWGQGTLVTVSS
VL: DIQLTQSPSFLSASVGDRVTITCWASQGISSYLAWYQQKPGKAPKLLIYAASTLQSGVPSRFSGSGSGTEFTLTISSLQPEDFATYYCQLLNSYPYTFGQGTKLEIK
B2: mAb11008 (antibody, V domains shown)
VH: EVQLVESGGGLVQPGGSLRLSCAASGFTVSSNYMTWVRQAPGKGLEWVSVIYSGGSTFYADSVKGRFTISRHNSENTLYLQMNSLRAEDTAVYYCARDLAAAGTDYWGQGALVTVSS
VL: B1 VL with E81D, L90H, P95L
B3: mAb10998 (antibody, V domains shown)
VH: EVQLVESGGGLVHPGGSLRLSCAASGLTVSSNYMSWVRQAPGKGLEWVSVIYSGGSTYYADSVKGRFTISRHNSKNTLFLQMNSLRAEDTAVYYCARDRPITGTTLDVWGQGTTVTVSS
VL: DIQMTQSPSSLFASVGDRVTITCRASQSISSYLNWYQQKPGKAPKLLIYAASSLQSGVPSRFSGSGSGTDFTLTISSLQPEDFAFYYCQQTYSTPPITFGQGTRLEIK
B4: mAb11004 (antibody, V domains shown)
VH: QVQLVESGGGVVQPGRSLRLSCVASGFTFSIYGMDWVRQAPGKGLEWVAVISYDGSNKYYADSVKGRFTISRDNSKNTLYLQMNSLRPEDTAVYYCAKDREAAADAFDIWGQGTMVTVSS
VL: DIQMTQSPSSVSASVGDRVTITCRASQGISSWLAWYQQKPGKAPKLLIYAASSLHSGVPSRFSGSGSGTDFTLTISSLQPEDFATYYCQQANSFRLTFGGGTKVEIK

Molecular target: SARS-CoV-2-S-RBD-mmH (SARS-CoV-2)
Conditions: remark: other sources report otherwise

In order of falling Binding Signal (absorbance at 450 nm) (absorbance at 450 nm):
1. B2  2.91
2. B4  2.91
3. B3  2.83
4. B1  2.62

Molecular target: SARS-CoV-2 RBD extracellular domain expressed with a C-terminal myc-myc-hexahistidine tag (SARS-COV-2 RBD-MMH) (SARS-CoV-2)
Conditions: remark: other sources report otherwise

In order of falling t½ (dissociative half-life):
1. B1  31.5 min
2. B4  3.7 min
3. B2  2.9 min
4. B3  0.5 min
